No end group written: not given here.
Key:
Assay in all cases: Kinase Profiling Assay
Type in all cases: biochemical
Conditions in all cases: peptide 100 μM
Met(Y1248H)(h) = target: T1, Met(Y1248H)(h) (Homo sapiens, UniProt P08581, Y1230H)
T1 construct: purchased Millipore
In short: (§1)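 Scintillation counting quantifies radiolabeled, positively charged substrate retained on a negatively charged filter after kinase reaction with labeled ATP; inhibitor peptide present.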

LOK(h) = target: T2, LOK(h) (Homo sapiens, UniProt O94804)
T2 construct: purchased Millipore
T2 sequence (O94804 whole entry): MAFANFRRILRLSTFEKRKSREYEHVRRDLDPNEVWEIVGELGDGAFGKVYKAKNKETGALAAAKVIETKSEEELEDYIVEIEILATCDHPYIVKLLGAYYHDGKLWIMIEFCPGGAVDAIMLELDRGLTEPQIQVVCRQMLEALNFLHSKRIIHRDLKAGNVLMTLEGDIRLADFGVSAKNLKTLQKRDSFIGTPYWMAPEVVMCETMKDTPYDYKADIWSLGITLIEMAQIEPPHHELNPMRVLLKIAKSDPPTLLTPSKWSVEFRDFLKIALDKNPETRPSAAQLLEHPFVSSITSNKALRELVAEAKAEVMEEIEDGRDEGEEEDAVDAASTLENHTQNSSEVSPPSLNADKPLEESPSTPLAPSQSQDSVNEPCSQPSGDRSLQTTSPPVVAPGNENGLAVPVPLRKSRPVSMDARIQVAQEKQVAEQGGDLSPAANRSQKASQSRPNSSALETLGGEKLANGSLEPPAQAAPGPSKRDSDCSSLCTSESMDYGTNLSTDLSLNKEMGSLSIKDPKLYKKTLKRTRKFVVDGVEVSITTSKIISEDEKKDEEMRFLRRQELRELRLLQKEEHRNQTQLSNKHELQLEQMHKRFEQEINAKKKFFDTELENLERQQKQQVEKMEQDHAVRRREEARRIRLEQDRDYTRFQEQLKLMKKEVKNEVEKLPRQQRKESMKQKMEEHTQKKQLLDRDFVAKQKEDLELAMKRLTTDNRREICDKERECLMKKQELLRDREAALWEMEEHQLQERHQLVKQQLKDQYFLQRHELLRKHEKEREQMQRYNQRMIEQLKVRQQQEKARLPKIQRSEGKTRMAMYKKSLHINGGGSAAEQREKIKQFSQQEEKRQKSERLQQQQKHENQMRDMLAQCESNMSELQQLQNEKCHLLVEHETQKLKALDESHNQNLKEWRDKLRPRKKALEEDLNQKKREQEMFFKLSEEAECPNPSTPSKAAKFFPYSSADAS
In short: as §1

LKB1(h) = target: T3, LKB1(h) (Homo sapiens, UniProt Q15831)
T3 construct: purchased Millipore
T3 sequence (Q15831 1-433): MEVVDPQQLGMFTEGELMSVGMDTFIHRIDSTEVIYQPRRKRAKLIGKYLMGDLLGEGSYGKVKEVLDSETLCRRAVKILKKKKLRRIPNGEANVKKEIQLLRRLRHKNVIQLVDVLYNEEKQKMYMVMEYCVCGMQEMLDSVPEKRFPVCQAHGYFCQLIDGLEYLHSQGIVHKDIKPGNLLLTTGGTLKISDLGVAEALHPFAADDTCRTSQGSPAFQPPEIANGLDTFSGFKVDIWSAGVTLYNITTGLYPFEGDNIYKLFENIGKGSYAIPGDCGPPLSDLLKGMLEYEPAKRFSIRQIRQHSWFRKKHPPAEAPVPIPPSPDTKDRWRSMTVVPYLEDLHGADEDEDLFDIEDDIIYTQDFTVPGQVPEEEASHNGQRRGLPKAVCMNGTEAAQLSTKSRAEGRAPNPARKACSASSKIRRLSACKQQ
T3 sequence (Q7RTN6 1-431 partner): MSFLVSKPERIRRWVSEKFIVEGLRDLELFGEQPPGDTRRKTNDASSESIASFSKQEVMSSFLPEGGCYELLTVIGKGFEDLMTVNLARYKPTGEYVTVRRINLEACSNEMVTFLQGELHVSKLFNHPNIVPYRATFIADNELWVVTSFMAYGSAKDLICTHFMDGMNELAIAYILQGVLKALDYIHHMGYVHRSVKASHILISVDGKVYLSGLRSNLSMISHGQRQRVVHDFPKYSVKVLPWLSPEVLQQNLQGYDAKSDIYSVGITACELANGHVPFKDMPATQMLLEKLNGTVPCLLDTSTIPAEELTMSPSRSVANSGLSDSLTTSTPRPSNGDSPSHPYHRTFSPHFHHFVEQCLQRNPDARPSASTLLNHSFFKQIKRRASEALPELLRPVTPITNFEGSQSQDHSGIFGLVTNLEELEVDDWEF
T3 sequence (Q9Y376 1-341 partner): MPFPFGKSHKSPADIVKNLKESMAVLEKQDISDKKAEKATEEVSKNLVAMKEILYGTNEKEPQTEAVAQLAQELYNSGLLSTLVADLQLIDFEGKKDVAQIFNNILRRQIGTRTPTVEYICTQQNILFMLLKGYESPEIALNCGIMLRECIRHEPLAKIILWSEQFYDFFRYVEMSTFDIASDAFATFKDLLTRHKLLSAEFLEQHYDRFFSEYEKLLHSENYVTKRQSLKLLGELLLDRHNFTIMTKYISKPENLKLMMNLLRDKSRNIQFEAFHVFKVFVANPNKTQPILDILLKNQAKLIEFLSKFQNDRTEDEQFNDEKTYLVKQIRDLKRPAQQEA
In short: as §1

MKK7β(h) = target: T4, MKK7β(h) (Homo sapiens, UniProt O14733)
T4 construct: purchased Millipore
T4 sequence (O14733 1-419): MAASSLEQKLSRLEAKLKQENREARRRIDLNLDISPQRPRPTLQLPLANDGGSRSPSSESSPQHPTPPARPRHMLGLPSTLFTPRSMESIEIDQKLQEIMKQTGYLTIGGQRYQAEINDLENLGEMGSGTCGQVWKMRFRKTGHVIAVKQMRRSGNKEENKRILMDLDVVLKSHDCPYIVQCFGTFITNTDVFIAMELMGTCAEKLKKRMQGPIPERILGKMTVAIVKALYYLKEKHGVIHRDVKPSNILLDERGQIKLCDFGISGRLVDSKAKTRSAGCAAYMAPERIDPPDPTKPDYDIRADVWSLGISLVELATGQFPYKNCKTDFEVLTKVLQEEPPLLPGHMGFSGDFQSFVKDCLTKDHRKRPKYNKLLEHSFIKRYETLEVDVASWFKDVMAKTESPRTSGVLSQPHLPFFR
In short: as §1

EphA1(h) = target: T5, EphA1(h) (Homo sapiens, UniProt P21709)
T5 sequence (P21709 26-976): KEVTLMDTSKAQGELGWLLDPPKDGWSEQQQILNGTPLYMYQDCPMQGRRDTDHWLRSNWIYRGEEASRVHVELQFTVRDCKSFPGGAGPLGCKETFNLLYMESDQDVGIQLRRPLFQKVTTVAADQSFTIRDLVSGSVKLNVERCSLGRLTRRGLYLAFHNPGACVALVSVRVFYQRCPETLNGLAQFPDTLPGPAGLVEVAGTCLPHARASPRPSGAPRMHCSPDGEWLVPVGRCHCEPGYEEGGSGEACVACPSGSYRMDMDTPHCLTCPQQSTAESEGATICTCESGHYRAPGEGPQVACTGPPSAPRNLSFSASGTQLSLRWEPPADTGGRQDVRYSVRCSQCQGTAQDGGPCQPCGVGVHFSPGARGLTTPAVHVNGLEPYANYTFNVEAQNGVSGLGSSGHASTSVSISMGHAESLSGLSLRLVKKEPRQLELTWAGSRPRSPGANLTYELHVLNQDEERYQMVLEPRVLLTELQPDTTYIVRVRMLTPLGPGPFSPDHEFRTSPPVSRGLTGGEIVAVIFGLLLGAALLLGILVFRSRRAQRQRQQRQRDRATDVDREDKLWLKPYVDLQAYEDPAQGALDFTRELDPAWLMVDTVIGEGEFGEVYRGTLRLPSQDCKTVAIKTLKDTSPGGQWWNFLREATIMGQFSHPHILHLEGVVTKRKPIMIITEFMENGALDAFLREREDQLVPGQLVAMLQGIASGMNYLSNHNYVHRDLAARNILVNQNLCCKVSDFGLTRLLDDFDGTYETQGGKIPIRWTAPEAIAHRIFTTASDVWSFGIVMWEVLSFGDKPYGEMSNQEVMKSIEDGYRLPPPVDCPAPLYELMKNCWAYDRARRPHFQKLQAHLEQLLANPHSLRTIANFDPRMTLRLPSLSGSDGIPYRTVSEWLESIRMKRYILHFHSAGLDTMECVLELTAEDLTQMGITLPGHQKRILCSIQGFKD
In short: as §1

CDK9/cyclin T1(h) = CDK9/cyclin T1(h) (Homo sapiens, UniProt P50750)
Sequence of CDK9/cyclin T1(h) (P50750 whole entry): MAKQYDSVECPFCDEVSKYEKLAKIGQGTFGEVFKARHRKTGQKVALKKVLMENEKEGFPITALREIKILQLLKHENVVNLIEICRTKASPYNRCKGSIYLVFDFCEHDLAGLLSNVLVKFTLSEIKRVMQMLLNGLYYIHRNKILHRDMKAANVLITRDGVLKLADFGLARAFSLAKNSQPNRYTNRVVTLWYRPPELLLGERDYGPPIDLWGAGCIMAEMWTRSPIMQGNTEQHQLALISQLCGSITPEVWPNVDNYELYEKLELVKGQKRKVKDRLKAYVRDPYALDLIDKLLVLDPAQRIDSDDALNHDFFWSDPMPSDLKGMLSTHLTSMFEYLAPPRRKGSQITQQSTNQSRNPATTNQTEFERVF
Sequence of CDK9/cyclin T1(h) (O60563 whole entry partner): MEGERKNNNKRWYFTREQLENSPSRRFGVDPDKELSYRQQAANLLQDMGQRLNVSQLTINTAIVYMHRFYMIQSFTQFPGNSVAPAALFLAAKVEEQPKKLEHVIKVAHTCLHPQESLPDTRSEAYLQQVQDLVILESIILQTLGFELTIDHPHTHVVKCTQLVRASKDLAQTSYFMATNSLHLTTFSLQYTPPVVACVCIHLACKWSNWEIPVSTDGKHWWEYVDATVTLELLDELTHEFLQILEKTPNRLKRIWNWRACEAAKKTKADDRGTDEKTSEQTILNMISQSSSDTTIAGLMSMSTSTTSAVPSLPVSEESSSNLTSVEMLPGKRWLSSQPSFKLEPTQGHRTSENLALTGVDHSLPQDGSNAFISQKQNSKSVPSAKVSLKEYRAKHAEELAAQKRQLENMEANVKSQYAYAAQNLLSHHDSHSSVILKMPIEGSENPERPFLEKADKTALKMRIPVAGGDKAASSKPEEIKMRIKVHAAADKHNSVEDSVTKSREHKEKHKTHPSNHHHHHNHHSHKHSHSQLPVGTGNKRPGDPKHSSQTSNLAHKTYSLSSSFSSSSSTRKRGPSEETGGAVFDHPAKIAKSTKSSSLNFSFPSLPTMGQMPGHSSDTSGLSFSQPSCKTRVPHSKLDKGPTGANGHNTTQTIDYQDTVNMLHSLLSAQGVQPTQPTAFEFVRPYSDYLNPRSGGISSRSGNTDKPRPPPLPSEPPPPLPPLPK
In short: as §1

Sequence: YARAAARQARAKALNRQLGVA (Mammal) [MMI-0200]
- % activity (Met(Y1248H)(h)): 153%
- % activity (LOK(h)): 67%
- % activity (LKB1(h)): 99%

Sequence: YARAAARQARAKALARQLGVAA [MMI-0100]
- % activity (Met(Y1248H)(h)): 88%
- % activity (MKK7β(h)): 137%
- % activity (LOK(h)): 37%

Sequence: HRRIKAWLKKIKALARQLGVAA (Mammal) [MMI-0500]
- % activity (Met(Y1248H)(h)): 126%
- % activity (EphA1(h)): 40%
- % activity (LOK(h)): 7%
- % activity (LKB1(h)): 51%
- % activity (CDK9/cyclin T1(h)): 6%

Sequence: KAFAKLAARLYRKALARQLGVAA [MMI-0400]
- % activity (Met(Y1248H)(h)): 63%
- % activity (MKK7β(h)): 94%
- % activity (EphA1(h)): 61%
- % activity (LOK(h)): 18%
- % activity (LKB1(h)): 89%
- % activity (CDK9/cyclin T1(h)): 235%

Sequence: FAKLAARLYRKALARQLGVAA [MMI-0300]
- % activity (MKK7β(h)): 100%
- % activity (EphA1(h)): 73%
- % activity (LOK(h)): 37%
- % activity (LKB1(h)): 101%
- % activity (CDK9/cyclin T1(h)): 91%

From patent US20150258192A1, “COMPOSITIONS AND METHODS FOR PREVENTING OR TREATING CHRONIC LUNG ALLOGRAFT DYSFUNCTION (CLAD) AND IDIOPATHIC PULMONARY FIBROSIS (IPF)” (priority 2014, published 2015)
